The values below are quoted from earlier work in publication PMC4741949.

For this data set, the target named is EGFR wild-type (human) (UniProt P00533). The conditions noted are these: 2'F-pyrimidines (2'F-C, 2'F-U), RT-qPCR: 15 min 37 C, 100 ug/ml polyinosine, DPBS washes, flow cytometry: DPBS, 30 min, confocal: DMEM without FBS, UV cross-linking buffer not given.

In the case of “GCCUUAGUAACGUGCUUUGAUGUCGAUUCGACAGGAGGC [CL4]”, the dissociation constant (Kd) (in general, the constant that tells how readily two partners part at equilibrium) was 10 nM.
